Results from patent US20150344535A1, “NEUROTROPHIN-TYROSINE KINASE RECEPTOR SIGNALING” (THE UNIVERSITY OF QUEENSLAND, priority 2012, published 2015).

Columns and labels:
TrkAK538A = assay: cell-based or functional assay
[1] = biological target: TrkA endogenously expressed in PC12 cells (UniProt P35739); assay: cell-based or functional assay
Sequence of TrkA endogenously expressed in PC12 cells (P35739 33-799 limits assumed): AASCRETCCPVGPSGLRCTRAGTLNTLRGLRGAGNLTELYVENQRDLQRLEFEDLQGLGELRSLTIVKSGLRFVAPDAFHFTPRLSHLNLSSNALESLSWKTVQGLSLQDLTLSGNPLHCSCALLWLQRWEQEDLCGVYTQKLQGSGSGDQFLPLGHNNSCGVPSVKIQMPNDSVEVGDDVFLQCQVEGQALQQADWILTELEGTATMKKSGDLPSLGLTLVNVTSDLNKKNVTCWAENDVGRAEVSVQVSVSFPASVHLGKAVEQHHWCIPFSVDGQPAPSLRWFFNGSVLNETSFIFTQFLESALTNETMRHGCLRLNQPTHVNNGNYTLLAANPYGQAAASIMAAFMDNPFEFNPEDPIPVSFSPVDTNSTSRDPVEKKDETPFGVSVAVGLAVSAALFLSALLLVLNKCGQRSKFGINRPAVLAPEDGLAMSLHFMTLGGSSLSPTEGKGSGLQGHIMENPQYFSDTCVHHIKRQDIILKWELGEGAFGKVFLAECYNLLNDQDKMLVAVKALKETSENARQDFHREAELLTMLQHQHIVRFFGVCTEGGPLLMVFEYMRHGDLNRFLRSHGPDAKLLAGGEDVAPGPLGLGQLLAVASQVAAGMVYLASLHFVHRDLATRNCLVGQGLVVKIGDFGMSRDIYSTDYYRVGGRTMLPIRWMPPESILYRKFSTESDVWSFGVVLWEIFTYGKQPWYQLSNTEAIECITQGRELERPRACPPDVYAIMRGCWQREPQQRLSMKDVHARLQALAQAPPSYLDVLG

neurite outgrowth of PC12 cells co-expressing p75^ICD and TrkAK538A after NGF treatment (TrkAK538A): 10 to 40 µm | neurite outgrowth of PC12 cells overexpressing the construct, 100 ng/ml NGF, 5 days [1]: 60%
Substance: p75^ICD-YFP (from UniProt P08138 273-427) (receptor)
